The results in this text go back to the RNAGym collection of RNA variant scans (doi:10.1093/nar/gkz1192).

The chains are these.
B1: CPEB3 Ribozyme (parent)
chain: UAACAGGGGGCCACAGCAGAAGCGUUCACGUCGCAGCCCCUGUCAGAUUCUGGUGAAUCUGCGAAUUCUGCUGUAUAUCUC

The variants in this data set derive from B1. Kind of data set: self-cleavage, relative activity (ratio to wild type); higher = more cleavage; in vitro, sequencing. An outline of the steps: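 For each CPEB3 ribozyme variant, relative activity is its cleaved/total read fraction divided by the unmutated ribozyme's. Barcoded error-prone PCR libraries were transcribed by T7 RNA polymerase (5 hours, 37°C) and held in DNase I for 15 min before an EDTA stop, with cleavage occurring throughout. Template-switching reverse transcription and Illumina sequencing were used to read the RNAs. A 5-read minimum applied, and results are the mean of three batches.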
G22A A56G: the self-cleavage worked out at 0.17. Under A21G G36C stands 0.24; under A21G G36U, 0.07. Next, A21U A56G: 0.25; A21U A56U: 0.2; A21U A56C: 0.18. Under A21U A47U stands 0.1; under A21U A47G, 0.38.

Turning to A21U C38U, the self-cleavage was found to be 0.29. Under A21G U26C stands 0.29. Under A21G U26A stands 0.52; under A21G U26G, 0.25. Next, G22U U41A: 0.17; G22U U41C: 0.27. Take A21G C40U: the self-cleavage worked out at 0.46. Under A21G C40A stands 0.26; under A21U G42C, 0.29. As for A21U C27G, the self-cleavage is 0.07.

Take A21U C27U: the self-cleavage was found to be 0.14. Next, A21U U78C: 0.25. Next, A21U U78A: 0.38; A21G G22A: 0.17. Under A21U C68U stands 0.44; under A21U C68A, 0.32; under G22A U72C, 0.23.

With A21G C37G, the self-cleavage is 0.19. Turning to A21G C37U, the self-cleavage is 0.39. Next, A21G C37A: 0.42. A21U U49C: the self-cleavage is 0.22. Next, G22C G42U: 0.11. Next, G22A U51G: 0.17; G22A U51C: 0.2; A21U C81U: 0.29. Under A21U C81A stands 0.45. With A21G U76C, the self-cleavage was 0.63. Under A21G U76A stands 0.55; under A21G U76G, 0.66. Turning to G22U C71U, the self-cleavage amounted to 0.08. Under A21G G24U stands 0.44; under A21G G24C, 0.23. Next, A21G G24A: 0.24; A21U G33A: 0.09. Next, G22U U43C: 0.3; G22U U43A: 0.34; A21U G61A: 0.34. As to G22C C37G, the self-cleavage was 0.09. Next, A21U G24A: 0.33; A21U A65G: 0.34.

With A21U C39A, the self-cleavage is 0.31. As to A21U C39U, the self-cleavage stood at 0.2. Next, A21G G30U: 0.21. Under A21G G30A stands 0.32; under A21G G30C, 0.15. Next, G22U U72C: 0.3. As to G22U U72A, the self-cleavage was 0.15. Next, G22A G52U: 0.38; A21G G63U: 0.61; A21G C81U: 0.92. Under A21U C44A stands 0.11; under A21U A35G, 1.03; under A21U A35U, 0.28. A21U U25C: the self-cleavage was found to be 0.29. Under A21U U25A stands 0.22. G22C A65G: the self-cleavage was 0.32. Under A21G G61U stands 0.34; under A21G G61A, 0.2. Next, A21G U67A: 0.24; A21G U67C: 0.24. On to G22C C62U, for which the self-cleavage was 0.16. Next, G22A U58C: 0.27; G22A U67C: 0.09; G22A U67A: 0.32. Next, G22C U41C: 0.1; G22C U41A: 0.29; G22U C59U: 0.16. Under A21U C37U stands 0.18; under A21G C27U, 0.18; under A21G C27A, 0.14. A21G A77U: the self-cleavage came out at 0.71. Under A21G A77C stands 0.63. Under A21G A77G stands 0.66; under G22C U31A, 0.12; under A21U C23A, 0.22. Next, A21U C23G: 0.07. As for A21U C23U, the self-cleavage was found to be 0.24.

For the variant G22A U54C, the self-cleavage stood at 0.2. In the case of A21U U60G, the self-cleavage amounted to 0.17. Next, A21U U60A: 0.3. Consider A21U U60C, for which the self-cleavage is 0.2. Next, A21U G53A: 0.29; G22A A57G: 0.35. Take A21U A75G: the self-cleavage was determined as 0.27. Next, A21U A75U: 0.37. A21G U58C: the self-cleavage was determined as 0.31.

As for A21G U58A, the self-cleavage was found to be 0.29. Next, A21G U58G: 0.39; A21U U58A: 0.37; A21U U58C: 0.12. Next, A21U: 0.37; A21G G52A: 0.72. Regarding G22C A35G, the self-cleavage was found to be 0.32. Next, G22C A35U: 0.12; A21U C40U: 0.15; G22A A47G: 0.48. Next, A21G C59U: 0.38.

Take A21G C59A: the self-cleavage stood at 0.31. Under A21G C79U stands 0.76; under A21G C44A, 0.18; under A21G C44U, 0.26. Next, A21U U66A: 1.12; A21U U66C: 0.33; G22C C29U: 0.1. As for A21G U80A, the self-cleavage is 0.72. In the case of A21G U80G, the self-cleavage came to 0.76. Next, A21G U80C: 0.74; G22C U78A: 0.06. With G22A G53A, the self-cleavage was 0.6.

As to A21U G70C, the self-cleavage was 0.05. Under G22U A56G stands 0.2. Under A21U U67C stands 0.2; under A21U U67A, 0.19. A21G U72G: the self-cleavage amounted to 0.53.

As to A21G U72A, the self-cleavage is 0.44. For the variant A21G U72C, the self-cleavage stood at 0.65. In the case of A21G G42U, the self-cleavage amounted to 0.37. Next, A21G G42A: 0.25.

For the variant A21G U43G, the self-cleavage amounted to 0.14. Take A21G U43A: the self-cleavage was found to be 0.75. Under A21G U43C stands 0.33; under A21G U60C, 0.27; under A21G U60A, 0.32. Under A21G U60G stands 0.29; under G22A U43A, 0.38. Next, G22A U43G: 0.09; A21G U31C: 0.24.

A21G U31G: the self-cleavage worked out at 0.41. Under A21G U31A stands 0.33; under A21G U69C, 0.27.

Consider A21G U69G, for which the self-cleavage came to 0.33. Next, A21G U69A: 0.27. Next, A21U U76A: 0.45. Under A21U U76C stands 0.27; under A21G U66G, 0.44. A21G U66A: the self-cleavage is 0.42. Under A21G U66C stands 1.05; under A21U G22A, 0.29. Next, A21G C38G: 0.26; A21G C38U: 0.57; A21G C38A: 0.33. Under A21G A75G stands 0.56; under A21G A75U, 0.72. A21G A75C: the self-cleavage was found to be 0.62. Under A21U U80A stands 0.44. A21U U80C: the self-cleavage is 0.53. Under G22C A56U stands 0.14. On to G22C A56G, for which the self-cleavage worked out at 0.21.

In the case of G22C U80G, the self-cleavage is 0.27. Next, G22U U26A: 0.26; G22U U26C: 0.11. Next, G22A A28G: 0.4; G22A A28U: 0.12. For G22A A28C, the self-cleavage came out at 0.21. Next, A21G G70A: 0.22.

In the case of G22A A75U, the self-cleavage turned out to be 0.37. Under A21G G46C stands 0.18; under A21G G46A, 0.42. Next, A21G G46U: 0.36.
